This note sets out measurements from IntAct's records for PubMed 17229891.

The target of this assay is 1433b_human YWHAB (UniProt P31946).
Chain of UniProt P31946 (P31946 whole entry): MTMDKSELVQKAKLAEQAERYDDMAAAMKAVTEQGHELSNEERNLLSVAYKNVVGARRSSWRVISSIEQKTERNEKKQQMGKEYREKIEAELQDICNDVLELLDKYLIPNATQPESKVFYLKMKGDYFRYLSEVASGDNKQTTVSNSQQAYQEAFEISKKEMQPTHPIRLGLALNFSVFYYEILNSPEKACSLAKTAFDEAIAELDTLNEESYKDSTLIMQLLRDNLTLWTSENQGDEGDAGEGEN

Take “Dual specificity tyrosine-phosphorylation-regulated kinase 1A (Homo sapiens) (from UniProt Q13627-2) S520A”: the “effect of a mutation on the interaction” value is “decreasing interaction”.
